Numbering of substitutions follows the chain as printed. Each block holds one binder with its values, some of them ahead of it.
Key:
[1] = target: T1, rHuman CD44/Fc Chimera, CF (R&D Systems Cat#3660-CD) (human, UniProt P16070 21-220); assay: ECL (MSD Multi-Spot) binding, antigen spotted on plate; Fab 50 nM;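 also: blank spot per well as comparator with Hit at signal to blank ratio of 4 or more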
T1 construct: Bought Fc chimera; Fc part of the bought chimera not given

[2] = target: T2, rHuman Notch-1/Fc Chimera, CF (R&D Systems Cat#3647-TK) (human, UniProt P46531 19-526); assay: as above
T2 construct: Bought Fc chimera; Fc part of the bought chimera not given

[3] = target: T3, rHuman HGF R/c-MET/Fc Chimera, CF (R&D Systems Cat#358-MT/CF) (human, UniProt P08581 25-932); assay: as above
T3 construct: Bought Fc chimera; also called HGF R/Fc; hepatocyte growth factor receptor; Fc part of the bought chimera not given

[4] = target: T4, rHuman ErbB2/Fc Chimera, CF (R&D Systems Cat#1129-ER) (human, UniProt P04626 23-652); assay: as above
T4 construct: Bought Fc chimera; also called human epidermal growth factor 2 receptor; HER2/neu; Fc part of the bought chimera not given

[5] = target: T5, rHuman EGF R/Fc Chimera, CF (R&D Systems Cat#344-ER) (human, UniProt P00533 25-645); assay: as above
T5 construct: Bought Fc chimera; also called epidermal growth factor receptor; Fc part of the bought chimera not given

[6] = target: T6, Recombinant Human DLL4 (R&D Systems Cat#1506-D4/CF) (human, UniProt Q9NR61 27-524); assay: as above
T6 construct: Bought recombinant protein; also called delta-like protein 4

[7] = target: T7, rHuman IGF-1 sR, CF (R&D Systems Cat#391-GR) (human, UniProt P08069 31-932); assay: as above
T7 construct: Bought soluble receptor; also called insulin-like growth factor-1 soluble receptor; IGF-R1

[8] = target: T8, rHuman Erythropoietin R/Fc Chimera, CF (R&D Systems Cat#963-ER) (human, UniProt P19235 25-250); assay: as above
T8 construct: Bought Fc chimera; also called EPO R/Fc; erythropoietin receptor; Fc part of the bought chimera not given
T8 sequence: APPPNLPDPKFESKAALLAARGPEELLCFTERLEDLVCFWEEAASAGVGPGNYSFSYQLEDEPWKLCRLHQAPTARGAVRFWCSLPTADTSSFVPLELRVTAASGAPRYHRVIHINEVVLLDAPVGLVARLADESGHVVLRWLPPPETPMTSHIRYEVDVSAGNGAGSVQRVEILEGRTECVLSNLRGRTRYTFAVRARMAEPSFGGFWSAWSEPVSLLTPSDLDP

[9] = target: T9, rHuman P-Cadherin/Fc Chimera, CF (R&D Systems Cat#861-PC) (human, UniProt P22223 108-654); assay: as above
T9 construct: Bought Fc chimera; Fc part of the bought chimera not given

[10] = target: T10, rHuman ErbB2/Fc Chimera, CF (R&D Systems Cat#1129-ER) (human, UniProt P04626 23-652); assay: ECL (MSD multi-spot), antigen on plate, Fab 0.5 nM
T10 construct: Bought Fc chimera; also called HER2/neu; not shown: Fc of the bought chimera

[11] = target: T11, rHuman HGF R/c-MET/Fc Chimera, CF (R&D Systems Cat#358-MT/CF) (human, UniProt P08581 25-932); assay: MSD ECL multi-spot plate, antigen immobilized; Fab 1000 nM; blank spot 427;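 also: blank spot per well as comparator with Hit at signal to blank ratio of 4 or more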
T11 construct: Purchased Fc chimera; also called HGF R/Fc; not shown: Fc portion of the purchased chimera

[12] = target: T12, rHuman EGF R/Fc Chimera, CF (R&D Systems Cat#344-ER) (human, UniProt P00533 25-645); assay: as above
T12 construct: Purchased Fc chimera; not shown: Fc portion of the purchased chimera

[13] = target: T13, rHuman CD44/Fc Chimera, CF (R&D Systems Cat#3660-CD) (human, UniProt P16070 21-220); assay: as above
T13 construct: Purchased Fc chimera; not shown: Fc portion of the purchased chimera

[14] = target: T14, rHuman IGF-1 sR (IGF-1 sR), CF (R&D Systems Cat#391-GR) (human, UniProt P08069 31-932); assay: as above
T14 construct: Purchased soluble receptor; also called insulin-like growth factor-1 soluble receptor; IGF-R1

[15] = target: T15, rHuman P-Cadherin/Fc Chimera, CF (R&D Systems Cat#861-PC) (human, UniProt P22223 108-654); assay: as above
T15 construct: Purchased Fc chimera; not shown: Fc portion of the purchased chimera

[16] = target: T16, rHuman ErbB2/Fc Chimera, CF (R&D Systems Cat#1129-ER) (human, UniProt P04626 23-652); assay: as above
T16 construct: Purchased Fc chimera; also called HER2/neu; not shown: Fc portion of the purchased chimera

[17] = target: T17, rHuman Notch-1/Fc Chimera, CF (R&D Systems Cat#3647-TK) (human, UniProt P46531 19-526); assay: as above
T17 construct: Purchased Fc chimera; not shown: Fc portion of the purchased chimera

[18] = target: T18, Recombinant Human DLL4 (R&D Systems Cat#1506-D4/CF) (human, UniProt Q9NR61 27-524); assay: as above
T18 construct: Purchased recombinant protein; also called delta-like protein 4

[19] = target: T19, rHuman Erythropoietin R/Fc Chimera, CF (R&D Systems Cat#963-ER) (human, UniProt P19235 25-250); assay: as above
T19 construct: Purchased Fc chimera; also called EPO R/Fc; Epo R; not shown: Fc portion of the purchased chimera
T19 sequence: T8 sequence

ECL signal [1]: 433 | ECL signal [2]: 475 | ECL signal [3]: 325 | ECL signal [4]: 589 | ECL signal [5]: 523 | ECL signal [6]: 207000 | ECL signal [7]: 460 | ECL signal [8]: 631 | ECL signal [9]: 626
B1: Fab VH1-46_IGHD6-6*01_IGHJ1*01_S102A_S103P_S104F_H111Y & L6_IGKJ1*01 (Fab, V domains shown)
VH: QVQLVQSGAEVKKPGASVKVSCKASGYTFTSYYMHWVRQAPGQGLEWMGIINPSGGSTSYAQKFQGRVTMTRDTSTSTVYMELSSLRSEDTAVYYCAREEYAPFSAEYFQYWGQGTLVTVSS
VL: not shown
notes: Fab made in E. coli; The heavy chain also carries the CH1 with Flag and His tags of Plasmid A, and the light chain the kappa constant region of Plasmid C

ECL signal [10]: 1720 ECL signal
B2: Fab VH1-46_IGHD6-6*01_IGHJ1*01_S102A_S103P_S104Y_H111Y & L6_IGKJ1*01 (Fab, V domains shown)
VH: B1 VH with F104Y
VL: not shown
notes: Fab made in E. coli; The heavy chain also carries CH1 with Flag and His tags from Plasmid A, and the light chain carries kappa CL from Plasmid C

ECL signal [11]: 778 ECL signal | ECL signal [12]: 721 ECL signal | ECL signal [13]: 559 ECL signal | ECL signal [14]: 733 ECL signal | ECL signal [15]: 762 ECL signal | ECL signal [16]: 945 ECL signal | ECL signal [17]: 761 ECL signal | ECL signal [18]: 23400 ECL signal | ECL signal [19]: 666 ECL signal
B3: Fab VH5-51_IGHD5-18*01>3_IGHJ4*01_G100R & V3-4_IGLJ1*01 (Fab, V domains shown)
VH: EVQLVQSGAEVKKPGESLKISCKGSGYSFTSYWIGWVRQMPGKGLEWMGIIYPGDSDTRYSPSFQGQVTISADKSISTAYLQWSSLKASDTAMYYCARRRYSYGYDYFDYWGQGTLVTVSS
VL: QTVVTQEPSFSVSPGGTVTLTCGLSSGSVSTSYYPSWYQQTPGQAPRTLIYSTNTRSSGVPDRFSGSILGNKAALTITGAQADDESDYYCVLYMGSGISYVFGTGTKVTVL
notes: It was expressed as a Fab: CH1 with tags from Plasmid A and lambda CL from Plasmid E; also called Fab No. 23

Reference: patent US20120058906A1 (published 2012)
